# Assays:
# [1] = biological target: Fc gamma receptors of NK cells; assay: cell-based or functional assay
# [2] = biological target: Fc gamma macrophage receptors; assay: flow cytometry on human macrophages, hybrid 5 µg/ml, 2 h at 37°C, anti-Fc-FITC
# [3] = biological target: Fc gamma macrophage receptors; assay: flow cytometry on human macrophages, hybrid 5 µg/ml, 20 h at 37°C, anti-Fc-FITC
# [4] = biological target: Fc gamma receptors of NK cells; assay: cytofluorimetry on NK cells, labelled Fc 10 µg/ml, 30 min at 37°C, no IgG
# [5] = biological target: Fc gamma macrophage receptors; assay: cell-based or functional assay
# [6] = biological target: Fc gamma receptors of NK cells; assay: competition, cytofluorimetry on NK cells: labelled FcSDHFSTIE-N3-DBCO-A647 10 µg/ml with human IgG 1 µg/ml
# [7] = biological target: Fc gamma receptors of NK cells; assay: competition, cytofluorimetry on NK cells: labelled FcSDHFSTIE-N3-DBCO-A647 10 µg/ml with human IgG 10 µg/ml
# [8] = biological target: Fc gamma receptors of NK cells; assay: competition, cytofluorimetry on NK cells: labelled FcSDHFSTIE-N3-DBCO-A647 10 µg/ml with human IgG 100 µg/ml
# [9] = biological target: Fc gamma receptors of NK cells; assay: competition, cytofluorimetry on NK cells: labelled FcSDHFSTIE-N3-DBCO-A647 10 µg/ml with human IgG 1000 µg/ml
# [10] = biological target: Fc gamma receptors of NK cells; assay: competition, cytofluorimetry on NK cells: labelled FcSDHFSTIE-N3-DBCO-A647 10 µg/ml with human IgG 10000 µg/ml
# [11] = biological target: Fc gamma receptors of NK cells; assay: competition, cytofluorimetry on NK cells: labelled FcSDHFSTIE-N3-DBCO-A647 10 µg/ml with human IgG 1 µg/ml; ratio to NEG
# [12] = biological target: Fc gamma receptors of NK cells; assay: competition, cytofluorimetry on NK cells: labelled FcSDHFSTIE-N3-DBCO-A647 10 µg/ml with human IgG 10 µg/ml; ratio to NEG
# [13] = biological target: Fc gamma receptors of NK cells; assay: competition, cytofluorimetry on NK cells: labelled FcSDHFSTIE-N3-DBCO-A647 10 µg/ml with human IgG 100 µg/ml; ratio to NEG
# [14] = biological target: Fc gamma receptors of NK cells; assay: competition, cytofluorimetry on NK cells: labelled FcSDHFSTIE-N3-DBCO-A647 10 µg/ml with human IgG 1000 µg/ml; ratio to NEG
# [15] = biological target: Fc gamma receptors of NK cells; assay: competition, cytofluorimetry on NK cells: labelled FcSDHFSTIE-N3-DBCO-A647 10 µg/ml with human IgG 10000 µg/ml; ratio to NEG
# [16] = biological target: Fc gamma receptors of NK cells; assay: cytofluorimetry on NK cells, 24 h at 37°C
# [17] = biological target: Fc gamma receptors of NK cells; assay: cytofluorimetry on NK cells, 48 h at 37°C
# [18] = biological target: Fc gamma receptors of NK cells; assay: cytofluorimetry on NK cells, 30 min at 37°C
substance,measurement,setting,value
Fc-WT-PEG-β60-74cit (from UniProt P01857 104-330) (Fc fusion),% expression of CD107a (NK cell degranulation),[1],1.8%
Fc-WT-β60-74cit (from UniProt P01857 104-330) (Fc fusion),Macrophages (fluorescence by cytofluorimetry),[2],808
same,Macrophages (fluorescence by cytofluorimetry),[3],1000
FcLALAPG-β60-74 (from UniProt P01857 104-330) (Fc fusion),% expression of CD107a (NK cell degranulation),[1],2.2%
FcSDHFSTIE-N3-DBCO-A647 (from UniProt P01857 104-330),MFI,[4],38500
Fc-WT-PEG-α621-635cit (from UniProt P01857 104-330) (Fc fusion),inhibition of phagocytosis by competing human IgG at 10 mg/ml,[5],50%
human IgG (antibody),MFI of FcSDHFSTIE-N3-DBCO-A647 with IgG as competitor,[6],37900
same,MFI of FcSDHFSTIE-N3-DBCO-A647 with IgG as competitor,[7],38800
same,MFI of FcSDHFSTIE-N3-DBCO-A647 with IgG as competitor,[8],36300
same,MFI of FcSDHFSTIE-N3-DBCO-A647 with IgG as competitor,[9],29500
same,MFI of FcSDHFSTIE-N3-DBCO-A647 with IgG as competitor,[10],20500
same,RATIO of FcSDHFSTIE-N3-DBCO-A647 with IgG as competitor,[11],179
same,RATIO of FcSDHFSTIE-N3-DBCO-A647 with IgG as competitor,[12],183
same,RATIO of FcSDHFSTIE-N3-DBCO-A647 with IgG as competitor,[13],171
same,RATIO of FcSDHFSTIE-N3-DBCO-A647 with IgG as competitor,[14],139
same,RATIO of FcSDHFSTIE-N3-DBCO-A647 with IgG as competitor,[15],96.6
FcSDHFSTIE-N3-DBCO-A488 (from UniProt P01857 104-330),MFI,[16],2350
same,MFI,[17],1710
same,MFI,[18],2970
FcSDHFSTIE-N3-DBCO-PEG3-β60-74cit-lysineA488 (from UniProt P01857 104-330) (Fc fusion),MFI,[16],4090
same,MFI,[17],4340
same,MFI,[18],4590
Fc-LALA-β60-74cit (from UniProt P01857 104-330) (Fc fusion),Macrophages (fluorescence by cytofluorimetry),[2],502
same,Macrophages (fluorescence by cytofluorimetry),[3],404

# From patent US20240307538A1
